Data published in patent US20110189692A1.
Values joined by “and” are separate entries in the source; they are usually repeats but may differ in a detail not shown here. Equal entries are not always repeated.

What was measured:
[1] = target: PrP^C, non-pathogenic human prion protein, from normal brain homogenate (human) (UniProt P04156)
[2] = target: PrP^Sc, pathogenic conformer of the human prion protein, from vCJD brain homogenate (human) (UniProt P04156)
[3] = target: tau of normal human brain homogenate (native) (human) (UniProt P10636)
[4] = target: PrP^Sc, pathogenic conformer of the human prion protein, from vCJD brain homogenate (human) (UniProt P04156); remark: listed apart in the source
[5] = target: aggregated Aβ42 from Alzheimer's disease brain homogenate (human) (UniProt P05067)

PSR1 (peptoid reagent XIIb attached to magnetic beads) (designed binder)
ELISA signal after pulldown (RLU, ave) [1]: 9.9 RLU | ELISA signal after pulldown (RLU, ave) [2]: 53 RLU | tau ELISA signal after pulldown, mean of 3 [3]: 0.11 and 0.12 | tau ELISA signal after pulldown, replicate [3]: 0.11 and 0.12 and 0.13 | pulldown efficiency [4]: 100% | recovery [5]: 100%
